Here are results for 91 sequences from the supplement of paper PMC9112550, “Optimization of the antimicrobial peptide Bac7 by deep mutational scanning” (BMC Biology, 2022).

This series relates to Escherichia coli TOP10. Put plainly: shrunken log2 fold change of peptide-encoding DNA abundance (4.5 h post-induction vs induction); higher = less antimicrobial activity (less host growth inhibition). Particulars: time post-induction: 4.5 h; library: site-saturation at positions 5, 18, 19, 20.
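Further: peptides expressed intracellularly from a pBAD plasmid library in pooled LB shake-flask culture, induced with 0.3% L-arabinose, DNA abundance read by NGS, three biological replicates, DESeq2 with apeglm shrinkage.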

In the case of RRIRLRPPRLPRPRPRPSHCPRP, the “shrunken log2 fold change” value is -0.117. RRIRNRPPRLPRPRPRPWCGPRP: the “shrunken log2 fold change” value is -0.263. The value for RRIRVRPPRLPRPRPRPQQPPRP was 0.124. For RRIRPRPPRLPRPRPRPNFMPRP, the “shrunken log2 fold change” value came out at 0.109. Turning to RRIRQRPPRLPRPRPRPQPDPRP, the “shrunken log2 fold change” value is -0.00546. As for RRIRTRPPRLPRPRPRPTITPRP, the figure is 0.184.

On to RRIRDRPPRLPRPRPRPPMPPRP, for which the “shrunken log2 fold change” value turned out to be 0.203.

Consider RRIRQRPPRLPRPRPRPAWYPRP, for which the “shrunken log2 fold change” value was -0.0125.

On to RRIRSRPPRLPRPRPRPQACPRP, for which the “shrunken log2 fold change” value worked out at 0.125. As for RRIRWRPPRLPRPRPRPSTIPRP, the figure is -0.374; as for RRIRDRPPRLPRPRPRPSKMPRP, -0.0126; as for RRIRARPPRLPRPRPRPWHYPRP, -0.253. The value for RRIRKRPPRLPRPRPRPSQIPRP was 0.00892. In the case of RRIRKRPPRLPRPRPRPPDWPRP, the “shrunken log2 fold change” value came out at 1.48. Take RRIRIRPPRLPRPRPRPAWPPRP: the “shrunken log2 fold change” value is 0.339. As for RRIRMRPPRLPRPRPRPHREPRP, the figure is 0.104; as for RRIRMRPPRLPRPRPRPQNCPRP, 0.0712. As for RRIRVRPPRLPRPRPRPNYIPRP, the figure is -0.631. Regarding RRIRYRPPRLPRPRPRPKKSPRP, the “shrunken log2 fold change” value was -0.298. As to RRIRRRPPRLPRPRPRPKVFPRP, the “shrunken log2 fold change” value was -0.00912.

RRIRMRPPRLPRPRPRPEHPPRP: the “shrunken log2 fold change” value is 0.75. In the case of RRIRFRPPRLPRPRPRPFWYPRP, the “shrunken log2 fold change” value was -0.102.

Regarding RRIRGRPPRLPRPRPRPMINPRP, the “shrunken log2 fold change” value turned out to be 0.574. As for RRIRARPPRLPRPRPRPGLDPRP, the figure is 0.419. In the case of RRIRFRPPRLPRPRPRPVIFPRP, the “shrunken log2 fold change” value came out at 0.774.

Consider RRIRCRPPRLPRPRPRPIVQPRP, for which the “shrunken log2 fold change” value is 0.0655. Turning to RRIRRRPPRLPRPRPRPMTMPRP, the “shrunken log2 fold change” value was determined as 0.0735. As for RRIRSRPPRLPRPRPRPCSPPRP, the figure is 0.149; as for RRIRVRPPRLPRPRPRPFELPRP, 0.0193. As for RRIRVRPPRLPRPRPRPTKYPRP, the “shrunken log2 fold change” value was -0.523. In the case of RRIRLRPPRLPRPRPRPCYEPRP, the “shrunken log2 fold change” value is -0.284. As for RRIRDRPPRLPRPRPRPGACPRP, the figure is 0.23.

Turning to RRIRTRPPRLPRPRPRPHFPPRP, the “shrunken log2 fold change” value was -0.199. As for RRIRHRPPRLPRPRPRPDQFPRP, the figure is -0.441; as for RRIRERPPRLPRPRPRPCQAPRP, -0.0282. As for RRIRMRPPRLPRPRPRPIQKPRP, the figure is 0.0394; as for RRIRRRPPRLPRPRPRPDWVPRP, 0.037; as for RRIRCRPPRLPRPRPRPFLRPRP, -0.0477.

RRIRFRPPRLPRPRPRPCLDPRP: the “shrunken log2 fold change” value is -0.35. As for RRIRRRPPRLPRPRPRPWGQPRP, the figure is 0.0104; as for RRIRARPPRLPRPRPRPRVMPRP, 0.197. As for RRIRPRPPRLPRPRPRPADAPRP, the figure is 0.29; as for RRIRIRPPRLPRPRPRPKIVPRP, -0.716; as for RRIRHRPPRLPRPRPRPKNQPRP, -0.16. For the sequence RRIRIRPPRLPRPRPRPVTGPRP, the “shrunken log2 fold change” value is -0.37.

Consider RRIRHRPPRLPRPRPRPETMPRP, for which the “shrunken log2 fold change” value was found to be 0.054.

Regarding RRIRNRPPRLPRPRPRPNYHPRP, the “shrunken log2 fold change” value is -0.801. Consider RRIRYRPPRLPRPRPRPVWTPRP, for which the “shrunken log2 fold change” value stood at 0.0188.

Consider RRIRQRPPRLPRPRPRPSMMPRP, for which the “shrunken log2 fold change” value is -0.565. As for RRIRCRPPRLPRPRPRPQIYPRP, the “shrunken log2 fold change” value is -0.579. The value for RRIRKRPPRLPRPRPRPPPAPRP was 1.29. As for RRIRIRPPRLPRPRPRPTDVPRP, the figure is -0.444; as for RRIRGRPPRLPRPRPRPDVFPRP, 0.438; as for RRIRKRPPRLPRPRPRPRDSPRP, 0.262. For the sequence RRIRGRPPRLPRPRPRPNVEPRP, the “shrunken log2 fold change” value turned out to be 0.183. As for RRIRQRPPRLPRPRPRPKHDPRP, the figure is -0.121.

As for RRIRLRPPRLPRPRPRPPVWPRP, the “shrunken log2 fold change” value stood at 0.591.

For RRIRDRPPRLPRPRPRPLIYPRP, the “shrunken log2 fold change” value is -0.653. RRIRLRPPRLPRPRPRPPENPRP: the “shrunken log2 fold change” value came to 0.588. The value for RRIRQRPPRLPRPRPRPSDCPRP was -0.756. The value for RRIRQRPPRLPRPRPRPHQIPRP was 0.0211. As for RRIRTRPPRLPRPRPRPEQFPRP, the figure is -0.0905. Turning to RRIRLRPPRLPRPRPRPLMEPRP, the “shrunken log2 fold change” value was -0.392. As for RRIRERPPRLPRPRPRPDPMPRP, the figure is -0.0562; as for RRIRNRPPRLPRPRPRPEPMPRP, 0.132.

Turning to RRIRRRPPRLPRPRPRPTFRPRP, the “shrunken log2 fold change” value amounted to 0.0132.

RRIRERPPRLPRPRPRPYMIPRP: the “shrunken log2 fold change” value was -0.259.

Turning to RRIRVRPPRLPRPRPRPLMPPRP, the “shrunken log2 fold change” value was found to be 0.0146. With RRIRCRPPRLPRPRPRPQQAPRP, the “shrunken log2 fold change” value stood at 0.239. The value for RRIRTRPPRLPRPRPRPHLTPRP was 0.101; that for RRIRYRPPRLPRPRPRPMAKPRP was -0.0343.

For the sequence RRIRVRPPRLPRPRPRPETFPRP, the “shrunken log2 fold change” value is -0.0527.

As for RRIRARPPRLPRPRPRPVWIPRP, the “shrunken log2 fold change” value was -0.0967. The value for RRIRVRPPRLPRPRPRPHPPPRP was 0.361. The value for RRIRDRPPRLPRPRPRPYRPPRP was -0.00509; that for RRIRMRPPRLPRPRPRPCEVPRP was -0.181. RRIRARPPRLPRPRPRPGYAPRP: the “shrunken log2 fold change” value amounted to 0.0374. For the sequence RRIRGRPPRLPRPRPRPEKRPRP, the “shrunken log2 fold change” value turned out to be 0.993.

With RRIRTRPPRLPRPRPRPLCCPRP, the “shrunken log2 fold change” value turned out to be 1. The value for RRIRTRPPRLPRPRPRPRIAPRP was 0.102; that for RRIRWRPPRLPRPRPRPKIEPRP was -0.0252.

Regarding RRIRARPPRLPRPRPRPARQPRP, the “shrunken log2 fold change” value worked out at 0.766. The value for RRIRIRPPRLPRPRPRPQQIPRP was -0.552. The value for RRIRNRPPRLPRPRPRPARAPRP was 0.44; that for RRIRLRPPRLPRPRPRPATCPRP was -0.597; that for RRIRARPPRLPRPRPRPCGRPRP was 0.526. On to RRIRSRPPRLPRPRPRPMPYPRP, for which the “shrunken log2 fold change” value is -0.278.

In the case of RRIRCRPPRLPRPRPRPQRKPRP, the “shrunken log2 fold change” value amounted to 0.203. The value for RRIRARPPRLPRPRPRPLYWPRP was -0.194. As for RRIRIRPPRLPRPRPRPEMAPRP, the figure is -0.061; as for RRIRLRPPRLPRPRPRPLHEPRP, -0.00702.
